For assay [1], the target named is human IL-10Rβ extracellular domain (residues 20-220), biotinylated, from Hi5 cells (human) (UniProt Q08334).
The target in assay [2] is Clone 5.1 (super-10) in the presence of IL-10Rα ECD (UniProt P22301).
Assay [3] concerns the target Clone 5.1 (super-10), affinity-matured mono-IL-10 clone (UniProt P22301).

human IL-10Rβ extracellular domain (residues 20-220), biotinylated, from Hi5 cells, sequence (Q08334 20-220): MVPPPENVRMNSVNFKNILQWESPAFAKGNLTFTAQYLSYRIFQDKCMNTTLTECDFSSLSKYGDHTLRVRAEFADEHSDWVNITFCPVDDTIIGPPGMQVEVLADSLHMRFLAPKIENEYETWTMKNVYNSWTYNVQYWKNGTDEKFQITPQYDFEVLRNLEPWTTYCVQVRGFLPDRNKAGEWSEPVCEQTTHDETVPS
human IL-10Rβ extracellular domain (residues 20-220), biotinylated, from Hi5 cells (human), sequence (Q08334 20-220): as above

The substance “IL-10 D25A/E96A (10-DE) (from UniProt P22301 19-178) (ligand)” came in with a phospho-STAT3 by flow cytometry, YT-1 cells, relative to WT IL-10 in assay [1] of 50%.

As a reminder, the Kd is the free concentration of one partner at which half of the binding sites on the other are occupied at equilibrium, for simple one-to-one binding. With “human IL-10Rβ extracellular domain (residues 20-220), biotinylated, from Hi5 cells (from UniProt Q08334 20-220) (receptor)”, the Kd worked out at 30 nM in assay [2] and 70 nM in assay [3]. In assay [1], “IL-10 D25K (from UniProt P22301 19-178) (ligand)” gave a phospho-STAT3 by flow cytometry, YT-1 cells, relative to WT IL-10 of 50%.

Values taken from paper PMC9132103.
